# Reference: US20230192794A1
# Molecular target: IL10Rβ on human cell lines (HT-29, HEK-293T) (human (cells stated as human)) (UniProt Q08334)
# Experiment: cell-based or functional assay
# IL10Rβ on human cell lines (HT-29, HEK-293T) (human (cells stated as human)), sequence (Q08334 20-325): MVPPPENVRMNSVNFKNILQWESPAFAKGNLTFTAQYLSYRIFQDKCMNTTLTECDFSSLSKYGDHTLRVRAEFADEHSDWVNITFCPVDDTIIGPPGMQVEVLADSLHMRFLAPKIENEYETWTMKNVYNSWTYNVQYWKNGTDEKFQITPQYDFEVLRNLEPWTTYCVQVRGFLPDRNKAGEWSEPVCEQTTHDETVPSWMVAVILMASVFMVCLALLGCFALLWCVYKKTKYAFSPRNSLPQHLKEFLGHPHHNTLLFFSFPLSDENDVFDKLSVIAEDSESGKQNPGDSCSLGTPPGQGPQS
substance,measurement,value
22-B3 (mouse IL-22 S45E/Q116A/K124A/Q128A) (from UniProt Q9JJY9 34-179) (ligand),"Emax for STAT1 (phospho-Y701-STAT1) in HT-29 cells, phospho-flow (% of the WT IL-22 Emax)",30
same,"Emax for STAT3 (phospho-Y705-STAT3) in HT-29 cells, phospho-flow (% of the WT IL-22 Emax)",100
